The source of these data is US20260209362A1 (VIB VZW, published 2026).

Assay [1] concerns the target T1, biotinylated mouse recombinant IL-12Rβ2 (produced in-house) (mouse, UniProt P97378 24-637, random biotinylated).
T1 construct: Soluble recombinant protein used for panning, ELISA and BLI; also called mIL-12RB2; mIL12RB2
T1 sequence: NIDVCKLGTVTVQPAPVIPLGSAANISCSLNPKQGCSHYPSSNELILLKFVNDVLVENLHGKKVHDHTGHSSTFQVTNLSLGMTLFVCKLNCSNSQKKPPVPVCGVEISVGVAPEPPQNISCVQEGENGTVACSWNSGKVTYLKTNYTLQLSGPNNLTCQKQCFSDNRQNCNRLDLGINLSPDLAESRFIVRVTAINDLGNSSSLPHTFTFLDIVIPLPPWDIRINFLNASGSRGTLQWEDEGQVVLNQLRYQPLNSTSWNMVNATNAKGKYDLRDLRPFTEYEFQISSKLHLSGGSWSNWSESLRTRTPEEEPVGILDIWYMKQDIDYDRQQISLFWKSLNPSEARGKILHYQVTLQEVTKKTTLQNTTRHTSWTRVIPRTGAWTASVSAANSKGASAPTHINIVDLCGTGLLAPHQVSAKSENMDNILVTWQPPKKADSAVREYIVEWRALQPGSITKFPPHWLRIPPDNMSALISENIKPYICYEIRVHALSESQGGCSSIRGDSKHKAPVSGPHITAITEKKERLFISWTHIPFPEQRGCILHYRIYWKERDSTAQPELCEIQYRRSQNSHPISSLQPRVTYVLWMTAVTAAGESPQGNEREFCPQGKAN
In words: BLI (Octet Red), periplasmic extract on biotinylated mouse IL-12Rβ2 on streptavidin tips, 1:1 model. On the technique in general: BLI is a label-free optical method that tracks binding on a fibre tip over time.

Assay [2] concerns the target T2, biotinylated human recombinant IL-12Rβ2 (produced in-house) (human, UniProt Q99665 24-622, random biotinylated).
T2 construct: Soluble recombinant protein used for panning, ELISA and BLI; also called hIL-12RB2; hIL12RB2
T2 sequence: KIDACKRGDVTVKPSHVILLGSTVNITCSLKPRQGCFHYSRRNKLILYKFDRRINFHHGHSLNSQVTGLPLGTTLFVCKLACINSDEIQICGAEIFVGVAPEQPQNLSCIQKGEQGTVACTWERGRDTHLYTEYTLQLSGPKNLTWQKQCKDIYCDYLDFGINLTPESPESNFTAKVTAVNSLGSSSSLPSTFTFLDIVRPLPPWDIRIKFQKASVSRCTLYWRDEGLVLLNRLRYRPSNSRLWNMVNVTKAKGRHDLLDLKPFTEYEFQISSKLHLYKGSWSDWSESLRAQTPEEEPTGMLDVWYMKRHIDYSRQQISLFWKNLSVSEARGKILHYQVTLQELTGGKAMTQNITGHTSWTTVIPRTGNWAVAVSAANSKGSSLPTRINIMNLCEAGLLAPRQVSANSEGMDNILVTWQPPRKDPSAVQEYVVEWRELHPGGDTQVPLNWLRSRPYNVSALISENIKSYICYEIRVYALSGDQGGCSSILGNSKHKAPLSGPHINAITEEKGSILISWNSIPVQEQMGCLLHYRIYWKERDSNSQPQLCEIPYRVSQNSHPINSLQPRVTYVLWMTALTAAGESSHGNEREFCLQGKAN
As to the kind of experiment: ELISA, periplasmic extract on biotinylated human IL-12Rβ2; signal over streptavidin control well. Background: An ELISA detects its analyte on a solid surface through an enzyme-linked reagent.

Assay [3] deals with T1, biotinylated mouse recombinant IL-12Rβ2 …. As to the kind of experiment: ELISA, periplasmic extract on biotinylated mouse IL-12Rβ2; signal over streptavidin control well.
Assay [4] concerns the target T2, biotinylated human recombinant IL-12Rβ2 …. As to the kind of experiment: BLI (Octet Red), periplasmic extract on biotinylated human IL-12Rβ2 on streptavidin tips, 1:1 model.
Assay [5] addresses T3, human IL-12Rβ2 expressed on cells (human, UniProt Q99665 24-862).
T3 construct: the cell lines are described by plasmid or cDNA number only; also called hIL-12RB2; HEK293T transiently transfected with human IL-12Rβ2
T3 sequence: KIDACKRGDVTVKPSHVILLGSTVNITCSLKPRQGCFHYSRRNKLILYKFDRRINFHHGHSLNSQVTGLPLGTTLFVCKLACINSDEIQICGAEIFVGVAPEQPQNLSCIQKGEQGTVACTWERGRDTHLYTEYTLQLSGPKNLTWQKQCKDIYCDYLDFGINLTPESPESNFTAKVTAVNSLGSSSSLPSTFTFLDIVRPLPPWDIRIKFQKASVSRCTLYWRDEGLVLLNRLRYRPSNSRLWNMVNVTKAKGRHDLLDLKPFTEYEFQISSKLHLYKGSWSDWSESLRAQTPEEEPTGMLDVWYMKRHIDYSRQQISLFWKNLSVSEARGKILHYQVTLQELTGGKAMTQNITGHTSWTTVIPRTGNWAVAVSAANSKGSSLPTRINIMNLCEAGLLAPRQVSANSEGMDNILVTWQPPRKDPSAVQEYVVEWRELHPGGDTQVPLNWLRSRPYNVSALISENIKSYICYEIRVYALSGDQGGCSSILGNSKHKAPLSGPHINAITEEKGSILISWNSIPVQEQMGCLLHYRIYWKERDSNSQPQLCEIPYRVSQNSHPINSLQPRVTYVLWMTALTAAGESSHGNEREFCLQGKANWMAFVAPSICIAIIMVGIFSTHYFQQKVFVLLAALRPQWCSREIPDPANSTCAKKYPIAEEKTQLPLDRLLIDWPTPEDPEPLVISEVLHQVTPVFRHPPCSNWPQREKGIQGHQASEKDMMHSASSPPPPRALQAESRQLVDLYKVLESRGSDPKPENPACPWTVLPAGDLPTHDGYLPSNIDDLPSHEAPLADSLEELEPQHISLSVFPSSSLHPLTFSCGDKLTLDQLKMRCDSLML
In words: flow cytometry, periplasmic extract VHH-HA on HEK293T cells transiently expressing human IL-12Rβ2. (Flow cytometry measures light scatter and fluorescence of single cells or particles in a stream.)

In assay [6] the target is T2, biotinylated human recombinant IL-12Rβ2 …. As to the kind of experiment: BLI (Octet Red), periplasmic extract on biotinylated human IL-12Rβ2 on streptavidin tips.
Assay [7] has as its target T4, mouse IL-12Rβ2 expressed on cells (mouse, UniProt P97378 24-874).
T4 construct: the cell lines are described by plasmid or cDNA number only; also called mIL-12RB2; HEK293T transiently transfected with mouse IL-12Rβ2
T4 sequence: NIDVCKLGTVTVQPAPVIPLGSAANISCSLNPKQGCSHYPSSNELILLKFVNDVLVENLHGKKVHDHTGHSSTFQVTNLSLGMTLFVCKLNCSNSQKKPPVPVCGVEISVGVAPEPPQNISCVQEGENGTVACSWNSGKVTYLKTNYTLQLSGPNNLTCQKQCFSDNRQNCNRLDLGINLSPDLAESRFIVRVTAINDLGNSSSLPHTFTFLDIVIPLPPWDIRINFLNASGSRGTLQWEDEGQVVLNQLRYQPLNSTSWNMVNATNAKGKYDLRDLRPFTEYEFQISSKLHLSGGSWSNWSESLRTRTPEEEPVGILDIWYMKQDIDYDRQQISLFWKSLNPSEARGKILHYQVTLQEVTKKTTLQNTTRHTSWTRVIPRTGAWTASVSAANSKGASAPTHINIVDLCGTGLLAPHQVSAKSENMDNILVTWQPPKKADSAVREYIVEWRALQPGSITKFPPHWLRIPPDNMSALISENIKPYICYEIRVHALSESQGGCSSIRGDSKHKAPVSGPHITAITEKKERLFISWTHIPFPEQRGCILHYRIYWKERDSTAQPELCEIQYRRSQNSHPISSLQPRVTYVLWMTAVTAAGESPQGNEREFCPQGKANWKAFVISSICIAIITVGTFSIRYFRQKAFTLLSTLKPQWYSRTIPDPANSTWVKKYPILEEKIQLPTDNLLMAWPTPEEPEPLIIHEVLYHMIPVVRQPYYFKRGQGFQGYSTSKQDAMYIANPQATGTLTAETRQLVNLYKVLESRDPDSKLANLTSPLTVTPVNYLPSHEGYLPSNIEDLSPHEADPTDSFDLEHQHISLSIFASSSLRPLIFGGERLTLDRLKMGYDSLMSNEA
As to the kind of experiment: flow cytometry, periplasmic extract VHH-HA on HEK293T cells transiently expressing mouse IL-12Rβ2.

Assay [8] concerns the target T1, biotinylated mouse recombinant IL-12Rβ2 …. As to the kind of experiment: BLI (Octet Red), periplasmic extract on biotinylated mouse IL-12Rβ2 on streptavidin tips.
Assay [9] addresses T5, biotinylated recombinant mouse IL-12Rβ2 (mouse, UniProt P97378 24-637, random biotinylated).
T5 construct: Recombinant protein produced in-house; also called mIL-12RB2; mouse IL-12RB2
T5 sequence: T1 sequence
As to the kind of experiment: BLI, P.E., off-rate ranking.

The target in assay [10] is T6, biotinylated recombinant human IL-12Rβ2 (human, UniProt Q99665 24-622, random biotinylated).
T6 construct: Recombinant protein produced in-house; also called hIL-12RB2; human IL-12RB2
T6 sequence: T2 sequence
In words: BLI, P.E., off-rate ranking.

The target in assay [11] is T5, biotinylated recombinant mouse IL-12Rβ2. In words: ELISA, P.E., biotinylated antigen.
In assay [12] the target is T6, biotinylated recombinant human IL-12Rβ2. In words: ELISA, P.E., biotinylated antigen.

B1: anti-IL-12Rβ2 VHH clone 3CRHM14 (clone ID 21053) (VHH)
VHH: QVQLQESGGGLVQAGGSLRLSCAASGRTFSNYAMAWFRQAPGTEREFVAGLSGSGGDTEFYDDSVKGRFAISRDSAKNTVWLQMNSLKPEDTAVYYCAAATHVVVHYGLVRRRGTYDYWGQGTQVTVSS
notes: Tested as periplasmic extract; not shown: C-terminal HA tag
One may read the koff as a measure of how fast the partners let go of each other. Turning to B1, the koff in assay [1] was determined as 0.00483 s⁻¹; in assay [4], 0.00532 s⁻¹. Moreover, the “hIL12RB2/control (ELISA)” value in [2] was 3.11 ratio. Besides, the “mIL12RB2/control (ELISA)” value in assay [3] worked out at 25.1 ratio. The “% cells bound” value in assay [5] worked out at 35.8%; in [7], 18.6%. Also, the dMFI turned out to be 589 in assay [5] and 312 in assay [7]. The values for the Response in assay [6] and in assay [8] were 1.19 and 0.957, respectively.

B2: anti-IL-12Rβ2 VHH clone 3CRHM99 (clone ID 21062) (VHH)
VHH: QVQLQESGGGLVQPGGSLRLSCAASGISSSRLHVGWFRQSPGKEREFVAAISLSGGTQAYTDSVKGRFTISGDNVKNTAYLQMNSLRPEDTAVYYCAARERFIWTWSDLTYDYWGQGTQVTVSS
notes: as for B1
Consider B2, for which the koff in [1] was determined as 0.00671 s⁻¹; in assay [4] it was 0.00634 s⁻¹. Moreover, in assay [2], the “hIL12RB2/control (ELISA)” value stood at 4.24 ratio. Besides, in assay [3], the “mIL12RB2/control (ELISA)” value amounted to 5.24 ratio. The “% cells bound” value in [5] turned out to be 24.4%; in assay [7], 10.7%. For the same molecule, the dMFI in assay [5] is 458; in [7], 251. Also, the Response in assay [6] came to 1.45; in [8], 0.812.

B3: anti-IL-12Rβ2 VHH clone 3CRHM73 (clone ID 21060) (VHH)
VHH: QVQLQESGGGLVQAGGSLSLSCAASGSAFRLNFMGWYRQAPGKQRELVAAINSGGTEIYHDSVKGRFTISRDNADSTVWLQMNSLKPDDTAVYYCAADRGISWSKLAGGMDYWGKGTQVTVSS
notes: as for B1
For the molecule B3, the koff in assay [1] and in assay [4] was 0.00605 s⁻¹ in each case. The “hIL12RB2/control (ELISA)” value in assay [2] turned out to be 6.9 ratio. For the same molecule, in assay [3], the “mIL12RB2/control (ELISA)” value was found to be 26.3 ratio. The figures for the “% cells bound” value in assay [5] and in [7] were 19.5% and 10.4%, respectively. Further, the dMFI in assay [5] was determined as 297; in assay [7], 257. Moreover, the Response in [6] was determined as 1.45; in assay [8] it was 0.944.

B4: anti-IL-12Rβ2 VHH clone 3CAHM11 (clone ID 21050) (VHH)
VHH: QVQLQESGGGLVQAGGSLRLSCAASGRTFNNYAMAWFRQAPGKEREFIAAITRSDTTLYIDSVKGRFTISRDNAKNTVALQMNSLKPEDTAVYYCAAGMPYSYSDYPRDSKYDYWGRGTQVTVSS
notes: as for B1
On to B4, for which the off-rate (koff) in assay [1] stood at 0.00462 s⁻¹; in [4] it was 0.00519 s⁻¹. In addition, in assay [2], the “hIL12RB2/control (ELISA)” value turned out to be 3.04 ratio. Further, the “mIL12RB2/control (ELISA)” value in assay [3] worked out at 38.8 ratio. The “% cells bound” value came to 37.6% in assay [5] and 7.51% in assay [7]. For the same molecule, the figures for the dMFI in assay [5] and in [7] were 684 and 194, respectively. For the same molecule, the Response in assay [6] was 1.4; in assay [8] it was 1.03.

B5: anti-IL-12Rβ2 VHH clone 3CAHM11 (clone ID 21050) (VHH, not shown: small tags and cut ends)
VHH: B4 VHH
notes: periplasmic extract
Take B5: in [9], the Response turned out to be 1.03 and the off-rate constant (koff) came out at 0.00462 s⁻¹. Moreover, in [10], the Response is 1.4 and the koff is 0.00519 s⁻¹. For the same molecule, in assay [11], the “ELISA mIL-12RB2/control” value was 38.8. Also, the “ELISA hIL-12RB2/control” value in assay [12] was 3.04.
